Assays:
Peptide 4 [1] = target: T1, Peptide 4 (human, cyno); test: peptide microarray; Sp C1; IgG 10 µg/ml
T1 peptide: QQQQQPPPPPPPPPP

Peptide 2 [2] = target: T2, Peptide 2 (human, cyno); test: peptide microarray; Sp C1; IgG 10 µg/ml
T2 peptide: QQQQQQQPPPPPPPP

Peptide 22 = target: T3, Peptide 22 (cyno); test: peptide microarray; Sp C1; IgG 10 µg/ml
T3 peptide: QPMLPQPQPPPPPPR

Peptide 18 [3] = target: T4, Peptide 18 (cyno); test: peptide microarray; Sp C1; IgG 10 µg/ml
T4 peptide: QQQPPPPPPPPPPPP

Peptide 3 [4] = target: T5, Peptide 3 (human, cyno); test: peptide microarray; Sp C1; IgG 10 µg/ml
T5 peptide: QQQQQQPPPPPPPPP

Epitope 1 [5] = target: T6, Epitope 1 (human, cyno); test: peptide microarray; Sp C1; IgG 10 µg/ml
T6 peptide: QQQQPPPPPPPPPPP

Peptide 1 [6] = target: T7, Peptide 1 (human, cyno); test: peptide microarray; Sp C1; IgG 10 µg/ml
T7 peptide: QQQQQQQQPPPPPPP

Peptide 21 [7] = target: T8, Peptide 21 (cyno); test: peptide microarray; Sp C1; IgG 10 µg/ml
T8 peptide: AQPMLPQPQPPPPPP

Peptide 4 [8] = target: T1, Peptide 4; test: peptide microarray; Sp H; IgG 10 µg/ml
Peptide 7 = target: T9, Peptide 7 (human); test: peptide microarray; Sp H; IgG 10 µg/ml
T9 peptide: PQAQPLLPQPQPPPP

Peptide 2 [9] = target: T2, Peptide 2; test: peptide microarray; Sp H; IgG 10 µg/ml
Peptide 3 [10] = target: T5, Peptide 3; test: peptide microarray; Sp H; IgG 10 µg/ml
Peptide 13 = target: T10, Peptide 13 (human); test: peptide microarray; Sp H; IgG 10 µg/ml
T10 peptide: LPQPQPPPPPPPPPP

Peptide 17 = target: T11, Peptide 17 (human); test: peptide microarray; Sp H; IgG 10 µg/ml
T11 peptide: QPPPPPPPPPPGPAV

Peptide 8 [11] = target: T12, Peptide 8 (human); test: peptide microarray; Sp H; IgG 10 µg/ml
T12 peptide: QAQPLLPQPQPPPPP

Peptide 10 = target: T13, Peptide 10 (human); test: peptide microarray; Sp H; IgG 10 µg/ml
T13 peptide: QPLLPQPQPPPPPPP

Peptide 16 = target: T14, Peptide 16 (human); test: peptide microarray; Sp H; IgG 10 µg/ml
T14 peptide: PQPPPPPPPPPPGPA

Peptide 11 [12] = target: T15, Peptide 11 (human); test: peptide microarray; Sp H; IgG 10 µg/ml
T15 peptide: PLLPQPQPPPPPPPP

Epitope 1 [13] = target: T6, Epitope 1; test: peptide microarray; Sp H; IgG 10 µg/ml
Peptide 1 [14] = target: T7, Peptide 1; test: peptide microarray; Sp H; IgG 10 µg/ml
[15] = target: T16, Mutant Human HTT Exon 1 48Q (GST) (human); test: ELISA
T16 construct: recombinant His- and GST-tagged fusion; also called HTT Exon 1 Q48; 48Q HTT Exon-1
T16 sequence (chain, as listed by the source mutant limits assumed): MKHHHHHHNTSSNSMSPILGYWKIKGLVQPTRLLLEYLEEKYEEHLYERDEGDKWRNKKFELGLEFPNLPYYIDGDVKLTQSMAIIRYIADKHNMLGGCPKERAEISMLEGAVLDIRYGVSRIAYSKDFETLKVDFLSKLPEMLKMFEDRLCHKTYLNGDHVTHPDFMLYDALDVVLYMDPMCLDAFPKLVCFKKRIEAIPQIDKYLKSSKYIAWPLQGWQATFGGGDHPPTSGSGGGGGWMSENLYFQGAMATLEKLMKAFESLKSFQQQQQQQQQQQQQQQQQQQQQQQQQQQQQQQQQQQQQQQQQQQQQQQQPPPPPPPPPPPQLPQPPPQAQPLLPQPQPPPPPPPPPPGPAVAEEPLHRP

Peptide 4 [16] = target: T1, Peptide 4; test: peptide microarray; Sp C2; IgG 1 µg/ml
Peptide 28 = target: T17, Peptide 28 (cyno); test: peptide microarray; Sp C2; IgG 1 µg/ml
T17 peptide: QPMLPQPQPPPPPPP

Peptide 30 = target: T18, Peptide 30 (cyno); test: peptide microarray; Sp C2; IgG 1 µg/ml
T18 peptide: MLPQPQPPPPPPPPP

Peptide 2 [17] = target: T2, Peptide 2; test: peptide microarray; Sp C2; IgG 1 µg/ml
Peptide 31 = target: T19, Peptide 31 (cyno); test: peptide microarray; Sp C2; IgG 1 µg/ml
T19 peptide: LPQPQPPPPPPPPPP

Peptide 18 [18] = target: T4, Peptide 18; test: peptide microarray; Sp C2; IgG 1 µg/ml
Peptide 3 [19] = target: T5, Peptide 3; test: peptide microarray; Sp C2; IgG 1 µg/ml
Peptide 29 = target: T20, Peptide 29 (cyno); test: peptide microarray; Sp C2; IgG 1 µg/ml
T20 peptide: PMLPQPQPPPPPPPP

Peptide 24 = target: T21, Peptide 24 (cyno); test: peptide microarray; Sp C2; IgG 1 µg/ml
T21 peptide: QQQQQQQQQPPPPPP

Epitope 1 [20] = target: T6, Epitope 1; test: peptide microarray; Sp C2; IgG 1 µg/ml
Peptide 1 [21] = target: T7, Peptide 1; test: peptide microarray; Sp C2; IgG 1 µg/ml
Peptide 21 [22] = target: T8, Peptide 21; test: peptide microarray; Sp C2; IgG 1 µg/ml
Peptide 26 = target: T22, Peptide 26 (cyno); test: peptide microarray; Sp C2; IgG 1 µg/ml
T22 construct: the array is said to hold 15-mers
T22 peptide: QPPPPPPPPPPPPQL

Peptide 25 = target: T23, Peptide 25 (cyno); test: peptide microarray; Sp C2; IgG 1 µg/ml
T23 peptide: QQPPPPPPPPPPPPQ

Peptide 4 [23] = target: T1, Peptide 4; test: peptide microarray; Sp H; IgG 1 µg/ml
Peptide 8 [24] = target: T12, Peptide 8; test: peptide microarray; Sp H; IgG 1 µg/ml
Peptide 12 = target: T24, Peptide 12 (human); test: peptide microarray; Sp H; IgG 1 µg/ml
T24 peptide: LLPQPQPPPPPPPPP

Peptide 11 [25] = target: T15, Peptide 11; test: peptide microarray; Sp H; IgG 1 µg/ml
Epitope 1 [26] = target: T6, Epitope 1; test: peptide microarray; Sp H; IgG 1 µg/ml
Peptide 9 = target: T25, Peptide 9 (human); test: peptide microarray; Sp H; IgG 1 µg/ml
T25 peptide: AQPLLPQPQPPPPPP

B1: ATL_0005335 (antibody, V domains shown)
VH: EVQLVESGGGLVKPGGSLRLSCAASGFTFNKAWMNWVRQAPGKGLEWVGRIKSGIDGGTTDYAAPVQGRFTISRDDSKNTVYLQMNSLNTEDTAVYYCIPPPYYYYYGLDVWGQGTTVTVSS
VL: QSALTQPASVSGSPGQSITISCTGTSSDIGSYNLVSWYQQHPGNAPKPLIYEGSKRPSGVSARFSGSKSGNTASLTISGLQPEDEADYYCSSYAGFNTLVFGGGTKVTVL
notes: human IgG1; also called ATL_5335
B1 was tested, and the corrected fluorescence intensity (Peptide 4 [1]) was 4320, the corrected fluorescence intensity (Peptide 2 [2]) was 2230 and the corrected fluorescence intensity (Peptide 22) was 374. It also gave a corrected fluorescence intensity (Peptide 18 [3]) of 4510, a corrected fluorescence intensity (Peptide 3 [4]) of 3540 and a corrected fluorescence intensity (Epitope 1 [5]) of 3340. It also gave a corrected fluorescence intensity (Peptide 1 [6]) of 0, a corrected fluorescence intensity (Peptide 21 [7]) of 2740 and a corrected fluorescence intensity (Peptide 4 [8]) of 3680. The corrected fluorescence intensity (Peptide 7) was 326, the corrected fluorescence intensity (Peptide 2 [9]) was 2100 and the corrected fluorescence intensity (Peptide 3 [10]) was 3190. For the same binder, the corrected fluorescence intensity (Peptide 13) was 9010, the corrected fluorescence intensity (Peptide 17) was 166 and the corrected fluorescence intensity (Peptide 8 [11]) was 1510. The corrected fluorescence intensity (Peptide 10) was 5410, the corrected fluorescence intensity (Peptide 16) was 415 and the corrected fluorescence intensity (Peptide 11 [12]) was 6680. For the same binder, the corrected fluorescence intensity (Epitope 1 [13]) was 3840, the corrected fluorescence intensity (Peptide 1 [14]) was 729 and the binding result [15] was “binds”. It also gave a corrected fluorescence intensity (Peptide 4 [16]) of 1110, a corrected fluorescence intensity (Peptide 28) of 421 and a corrected fluorescence intensity (Peptide 30) of 772. It also gave a corrected fluorescence intensity (Peptide 2 [17]) of 1160, a corrected fluorescence intensity (Peptide 31) of 1000 and a corrected fluorescence intensity (Peptide 18 [18]) of 1270. For the same binder, the corrected fluorescence intensity (Peptide 3 [19]) was 1220, the corrected fluorescence intensity (Peptide 29) was 523 and the corrected fluorescence intensity (Peptide 24) was 562. It also gave a corrected fluorescence intensity (Epitope 1 [20]) of 1400, a corrected fluorescence intensity (Peptide 1 [21]) of 990 and a corrected fluorescence intensity (Peptide 21 [22]) of 168. For the same binder, the corrected fluorescence intensity (Peptide 26) was 128, the corrected fluorescence intensity (Peptide 25) was 507 and the corrected fluorescence intensity (Peptide 4 [23]) was 409. The corrected fluorescence intensity (Peptide 8 [24]) was 434, the corrected fluorescence intensity (Peptide 12) was 932 and the corrected fluorescence intensity (Peptide 11 [25]) was 936. For the same binder, the corrected fluorescence intensity (Epitope 1 [26]) was 293 and the corrected fluorescence intensity (Peptide 9) was 622.

B2: ATL_0005331 (antibody, V domains shown)
VH: EVQLVESGGGLVKPGGSLRLSCAASGFTFNKAWMNWVRQAPGKGLEWVGRIKSGIDGGTTDYAAPVQGRFTISRDDSKNTVYLQMNSLNTEDTAVYYCIPPPYYYYYGLDVWGQGTTVTVSS
VL: QSALTQPRSVSGSPGQSITISCTGTSSDVGSYNLVSWFQQHPGKAPKLIIYEVNKRPSGVPDRFSGSKSGNTASLTVSGLQAEDEADYYCGSYAGTNNVFGTGTKLTVL
notes: human IgG1; also called ATL_5331; Human IgG1 ATL_0005331
B2 gave a corrected fluorescence intensity (Peptide 4 [1]) of 3150, a corrected fluorescence intensity (Peptide 2 [2]) of 1760 and a corrected fluorescence intensity (Peptide 22) of 112. The corrected fluorescence intensity (Peptide 18 [3]) was 3100, the corrected fluorescence intensity (Peptide 3 [4]) was 2290 and the corrected fluorescence intensity (Epitope 1 [5]) was 4160. It also gave a corrected fluorescence intensity (Peptide 1 [6]) of 378, a corrected fluorescence intensity (Peptide 21 [7]) of 1030 and a corrected fluorescence intensity (Peptide 4 [8]) of 2620. For the same binder, the corrected fluorescence intensity (Peptide 7) was 119, the corrected fluorescence intensity (Peptide 2 [9]) was 1340 and the corrected fluorescence intensity (Peptide 3 [10]) was 1670. For the same binder, the corrected fluorescence intensity (Peptide 13) was 3960, the corrected fluorescence intensity (Peptide 17) was 16.2 and the corrected fluorescence intensity (Peptide 8 [11]) was 1140. For the same binder, the corrected fluorescence intensity (Peptide 10) was 2250, the corrected fluorescence intensity (Peptide 16) was 145 and the corrected fluorescence intensity (Peptide 11 [12]) was 2950. The corrected fluorescence intensity (Epitope 1 [13]) was 2950, the corrected fluorescence intensity (Peptide 1 [14]) was 0 and the binding result [15] was “binds”. For the same binder, the corrected fluorescence intensity (Peptide 4 [16]) was 546, the corrected fluorescence intensity (Peptide 28) was 152 and the corrected fluorescence intensity (Peptide 30) was 256. It also gave a corrected fluorescence intensity (Peptide 2 [17]) of 462, a corrected fluorescence intensity (Peptide 31) of 294 and a corrected fluorescence intensity (Peptide 18 [18]) of 474. For the same binder, the corrected fluorescence intensity (Peptide 3 [19]) was 548, the corrected fluorescence intensity (Peptide 29) was 156 and the corrected fluorescence intensity (Peptide 24) was 146. It also gave a corrected fluorescence intensity (Epitope 1 [20]) of 379, a corrected fluorescence intensity (Peptide 1 [21]) of 259 and a corrected fluorescence intensity (Peptide 21 [22]) of 154. For the same binder, the corrected fluorescence intensity (Peptide 26) was 141, the corrected fluorescence intensity (Peptide 25) was 206 and the corrected fluorescence intensity (Peptide 4 [23]) was 238. It also gave a corrected fluorescence intensity (Peptide 8 [24]) of 260, a corrected fluorescence intensity (Peptide 12) of 374 and a corrected fluorescence intensity (Peptide 11 [25]) of 280. For the same binder, the corrected fluorescence intensity (Epitope 1 [26]) was 291 and the corrected fluorescence intensity (Peptide 9) was 229.
